What was measured:
[1] = test system: NIH3T3 cells expressing AcGFP-PDE5A fusions; assay: FACS analysis of C-terminal PDE5A mutants (AcGFP-PDE5A fusions), Sildenafil vs vehicle; format: cell-based, mouse; details: Table 2, 24 hours; for Mean Fluorescence intensity: NIH3T3
Experimental: The NIH3T3 cell line was cultured in DMEM supplemented with 10% heat-inactivated donor bovine serum (Invitrogen), 2 mM glutamine, 100 U/ml penicillin and 100 μg/ml streptomycin.
The ΦNX ecotropic packaging cell line was transfected using standard Lipofectamine 2000 protocols. Viral supernatants were harvested 48 hours, post transfection, filtered and concentrated 10-fold using Amicon Ultra centrifugal filter device with a 100kDa cutoff. NIH 3T3 cells were incubated with concentrated retroviral supernatants supplemented with 4 μg/ml polybrene for 4 hours at 37° C. Cells were washed once with PBS and cultured in growth media for 24-36 hours to allow for viral integration.
The transduced NIH3T3 cells were subjected to analysis using fluorescence-activated cell sorting (FACS) to screen the libraries of PDE5A mutants. 24 hours prior to analysis, transduced NIH3T3 cells were plated at 1×10^5 cells per well of a 12-well plate. Cells were removed from the plate using PBS and 2 mM EDTA, washed once with PBS, and resuspended in 200 μL, PBS. […]
To identify destabilizing domains that are responsive to the PDE5A ligand, Sildenafil, a cell-based screening assay was employed in which the fluorescence of green fluorescent protein derived from Aequorea coerulescens (AcGFP) served as an indicator of PDE5A stability. […]
A library of AcGFP-PDE5A fusions i.e., C-terminal PDE5A mutants was screened using the cell-based screening assay described previously to identify C-terminal destabilizing domains. […] The stabilization ratio was calculated as the fold change in GFP intensity of the AcGFP-PDE5A construct in Sildenafil treated sample compared to vehicle alone treated sample. […]
Residue D764 was identified as a mutational hotspot from sequence analysis. […] AcGFP-PDE5A variants were evaluated for Sildenafil dependent stabilization via FACS as described previously. […] The stabilization ratio was calculated as the fold change in GFP intensity of the AcGFP-PDE5A construct in Sildenafil treated sample compared to vehicle alone treated sample. […]

[2] = test system: HCT 116 cells transduced with the PDE5A DD derived GFP constructs; assay: Response to Tadalafil, GFP expression by FACS in HCT116; format: cell-based, human; details: for MFI / Stabilization ratio with Tadalafil: 48 hours, HCT116
Experimental: PDE5AN (#3) was cloned as AcGFP fusion into pELNS vector carrying mCherry marker and packaged in lentiviral vectors. HCT116 cells were transduced with the construct and stable integrants were selected by cell sorting using mCherry marker. Cells were treated with vehicle (dimethyl sulfoxide, DMSO) or varying doses of Tadalafil (TDF) for 48 hrs with doses ranging from 0.01 μM to 100 μM. Following the treatment, cells were analyzed for GFP expression using FACS. Basal expression was calculated as the ratio of GFP signal in the absence of ligand for a given cell line to auto fluorescence of parental HCT-116 cells. Stabilization ratio was calculated as the ratio of the GFP signal observed in the presence of stabilizing ligand to the signal from the same cell line in the absence of ligand.
HCT 116 cells transduced with the PDE5A DD derived GFP constructs were also tested with increasing doses of Tadalafil. The HCT116 cells were incubated for 48 hours with Tadalafil starting at dose 0.01 μM to 100 μM. The GFP intensity of the Tadalafil treated samples was compared to the parental untransduced HCT116 and DMSO treated cells for each construct. The mean fluorescence intensity was calculated for each sample and used to calculate the stabilization ratios as well as the basal expression for each construct. The stabilization ratios are shown in Table 19 and Table 20 and the basal expression is show in Table 21.

B1: PDE5AC (#42): AcGFP fused to C-terminal DD 535-860 of PDE5A (E535D, K555R, F564S, Q589R, K630R, C677R, N742S, I799T, M816A), SEQ ID NO. 28 (protein)
chain: DETRELQSLAAAVVPSAQTLRITDFSFSDSELSDLETALCTIRMFTDLNLVQNFRMKHEVLCRWILSVKKNYRKNVAYHNWRHAFNTAQCMFAALRAGKIQNKLTDLEILALLIAALSHDLDHRGVNNSYIQRSEHPLAQLYRHSIMEHHHFDQCLMILNSPGNQILSGLSIEEYKTTLKIIKQAILATDLALYIKRRGEFFELIRKSQFNLEDPHQKELFLAMLMTACDLSAITKPWPIQQRIAELVATEFFDQGDRERKELNTEPTDLMNREKKNKIPSAQVGFIDAICLQLYEALTHVSEDCFPLLDGCRKNRQKWQALAEQQ
modifications: /note=“Description of Artificial Sequence Synthetic Destabilizing Domain (DD)”
Mean Fluorescence intensity ([1]; Sildenafil (10 μM) +): 5861 | Mean Fluorescence intensity ([1]; Sildenafil (10 μM) −, vehicle alone): 1658 | Stabilization ratio ([1]; fold change in GFP intensity, Sildenafil 10 μM vs vehicle alone): 3.5 | MFI ([2]; DMSO (no Tadalafil)): 22601 | Basal expression ([2]; Table 21, MFI with DMSO / parental HCT116, Tadalafil experiment): 17.66 | Stabilization ratio with Tadalafil ([2]; Tadalafil 0.01 μM vs DMSO): 1.0 | MFI ([2]; Tadalafil 0.01 μM): 22787 | Stabilization ratio with Tadalafil ([2]; Tadalafil 0.02 μM vs DMSO): 1.0 | MFI ([2]; Tadalafil 0.02 μM): 23274 | Stabilization ratio with Tadalafil ([2]; Tadalafil 0.05 μM vs DMSO): 1.0 | MFI ([2]; Tadalafil 0.05 μM): 23278 | Stabilization ratio with Tadalafil ([2]; Tadalafil 0.14 μM vs DMSO): 1.1 | MFI ([2]; Tadalafil 0.14 μM): 24532 | Stabilization ratio with Tadalafil ([2]; Tadalafil 0.41 μM vs DMSO): 1.2 | MFI ([2]; Tadalafil 0.41 μM): 26765 | Stabilization ratio with Tadalafil ([2]; Tadalafil 1.23 μM vs DMSO): 1.6 | MFI ([2]; Tadalafil 1.23 μM): 35325 | Stabilization ratio with Tadalafil ([2]; Tadalafil 3.7 μM vs DMSO): 2.6 | MFI ([2]; Tadalafil 3.7 μM): 59821 | Stabilization ratio with Tadalafil ([2]; Tadalafil 11.11 μM vs DMSO): 4.1 | MFI ([2]; Tadalafil 11.11 μM): 92400 | Stabilization ratio with Tadalafil ([2]; Tadalafil 33.33 μM vs DMSO): 5.4 | MFI ([2]; Tadalafil 33.33 μM): 122658 | Stabilization ratio with Tadalafil ([2]; Tadalafil 100 μM vs DMSO): 6.2 | MFI ([2]; Tadalafil 100 μM): 139002
